The record followed here is patent US20040214227A1, “Bioluminescence resonance energy transfer (bret) fusion molecule and method of use” (priority 1999, published 2004).

Series [1] has as its system HeLa cells transfected with the apoptosis Rluc:Caspase:EYFP sensor. The series is described as follows: apoptosis induction BRET assay, Rluc:Caspase:EYFP sensor. The class given is cell-based. Particulars: 1 μM staurosporine, 5 hours, 37° C.; coelenterazine h; ratios decreased. In general terms: In BRET a luciferase serves as donor, and the signal depends on an acceptor being close.
Protocol: pCEP4/Rluc-EYFP and pCEP4/Rluc-caspase-EYFP DNAs were transfected into HeLa cell using LipofectAMINE (BRL/Gibco-Life technologies) in 100 mm dishes as described in the manufacturer's protocol. 24 hours post-transfection, transfected cells were harvested and distributed into 96-well microtiterplates (white Optiplate from Packard) at a density of 30,000 cells per well. The following day, cells were induced to undergo apoptosis using 1 μM staurosporine dissolved in ISCOVE media (BRL/Gibco-Life technologies) without serum and phenol red at 37° C. (total volume here is 100 μl) for 5 hours. 50 μl of BRET buffer (PBS Ca^2+/Mg^2++glucose without aprotinin) and 50 μl of coelenterazine h (20 μM) were added to start the bioluminescence reaction. Light emissions were detected using the BRETCount (read length 1 sec for each filter, temperature 25° C.). Data was collected 10 minutes after the addition of coelenterazine h. The assay was done in quadruplicate.

The subject of series [2] is HeLa cells transfected with the GFP1:Caspase-3:Rluc sensor. The series is described as follows: apoptosis induction BRET assay, GFP1:Caspase-3:Rluc sensor. Particulars: 1 μM staurosporine, 5 hours, 37° C.; DeepBlueC; at time zero; ratio decreased. The class given is cell-based. On the procedure:
(§1) PGFP1:caspase-3:Rluc DNAs and the original plasmid pGFP1::Rluc (without the caspase-3 site) were transfected into HeLa cell using LipofectAMINE (BRL/Gibco-Life technologies) in 100 mm dishes and 8 μg of plasmid DNA as described in the manufacturer's protocol. Twenty-four hours post-transfection transfected cells were harvested and distributed into 96-well microtiterplate (white Optiplate from Packard) at a density of 30 000 cells per well. The following day, cells were washed with PBS and were induced to undergo apoptosis by adding 100 μl of Iscove media without serum and phenol red (BRL/Life Technologies) containing staurosporine at a final concentration of 1 μM (+inducer; see FIG. 13) or 100 μl of Iscove alone (-inducer). Cells were incubated for 5 hours at 37° C. After this period, 50 μl of BRET buffer (PBS Ca^2+/Mg^2++glucose without aprotinin) and 50 μl of DeepBlueC (20 μM) were added to start the bioluminescence reaction. Total assay volume was 200 μl. Light emissions were detected using the BRETCount (read length of 1 sec. for each filter, SPC mode, temperature 25° C.).

The test system of series [3] is HeLa cells transfected with pGFP1::Rluc. The series is described as follows: apoptosis induction BRET assay, control construct without caspase-3 site. The class given is cell-based. Conditions: 1 μM staurosporine, 5 hours. On the procedure: as §1
Series [4] concerns the target GFP1:caspase-3:Rluc fusion protein expressed in HeLa cells (pGFP1:caspase-3:Rluc) (Aequorea victoria; Renilla) [GFP: P42212]. Kind of series: cell-based or functional assay.
Series [5] concerns the target Rluc:caspase:EYFP fusion protein expressed in HeLa cells (pCEP4/Rluc-caspase-EYFP) (Renilla) (UniProt P27652). Kind of series: cell-based or functional assay.
Series [6] has as its target Rluc:EYFP fusion protein, N-terminal His tag, purified from bacteria (pQE-32) (UniProt P27652).
The target in series [7] is Rluc:enterokinase:EYFP fusion protein, N-terminal His tag, purified from bacteria (pQE-32) (UniProt P27652).
Sequence of Rluc:enterokinase:EYFP fusion protein, N-terminal His tag, purified from bacteria (pQE-32) (P27652 other isoform, or with tags, fused parts or gaps): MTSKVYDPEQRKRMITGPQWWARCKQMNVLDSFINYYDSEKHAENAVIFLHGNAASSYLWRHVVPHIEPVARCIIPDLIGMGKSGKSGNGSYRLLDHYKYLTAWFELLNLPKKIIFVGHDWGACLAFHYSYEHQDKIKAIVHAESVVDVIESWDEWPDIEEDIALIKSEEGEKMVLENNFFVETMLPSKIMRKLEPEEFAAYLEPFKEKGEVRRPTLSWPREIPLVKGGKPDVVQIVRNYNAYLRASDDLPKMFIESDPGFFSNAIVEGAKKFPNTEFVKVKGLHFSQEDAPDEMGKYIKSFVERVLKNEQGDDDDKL

Sequence of Rluc:caspase:EYFP fusion protein expressed in HeLa cells (pCEP4/Rluc-caspase-EYFP) (Renilla) (P27652 other isoform, or with tags, fused parts or gaps): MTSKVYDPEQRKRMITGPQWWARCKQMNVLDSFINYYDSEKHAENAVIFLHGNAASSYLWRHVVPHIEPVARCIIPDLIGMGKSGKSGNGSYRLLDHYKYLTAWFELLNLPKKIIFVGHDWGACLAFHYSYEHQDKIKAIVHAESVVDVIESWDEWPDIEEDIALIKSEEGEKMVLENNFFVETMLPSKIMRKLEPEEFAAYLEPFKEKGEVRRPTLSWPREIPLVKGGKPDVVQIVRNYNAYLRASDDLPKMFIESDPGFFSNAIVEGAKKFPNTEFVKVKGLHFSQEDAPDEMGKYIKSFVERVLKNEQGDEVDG
Sequence of Rluc:EYFP fusion protein, N-terminal His tag, purified from bacteria (pQE-32) (P27652 whole entry, the tested form may be a part): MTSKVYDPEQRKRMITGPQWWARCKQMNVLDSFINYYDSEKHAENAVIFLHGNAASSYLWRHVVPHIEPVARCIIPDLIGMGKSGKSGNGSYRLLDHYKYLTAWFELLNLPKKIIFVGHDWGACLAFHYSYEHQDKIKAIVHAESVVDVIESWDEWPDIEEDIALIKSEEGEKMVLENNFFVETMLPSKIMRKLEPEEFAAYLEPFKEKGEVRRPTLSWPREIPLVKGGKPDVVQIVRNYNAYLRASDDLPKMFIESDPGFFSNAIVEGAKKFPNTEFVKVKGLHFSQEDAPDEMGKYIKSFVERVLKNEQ

As to `CN[C@@H]1C[C@H]2O[C@@](C)([C@@H]1OC)n1c3ccccc3c3c4c(c5c6ccccc6n2c5c31)C(=O)NC4` [staurosporine], the BRET ratio change was 0.1 unit in series [1] and 0.72 unit in series [2]. For the same compound, in series [3], the “change in BRET ratio” value is given as “No change in BRET ratio”.
As to “cellular caspase-3 (HeLa cells) (from UniProt P42574 29-277) (enzyme)”, the BRET ratio change in transfected HeLa cells after 5 hours of apoptosis induction by 1 uM staurosporine (unit (BRET ratio)) is 0.72 in series [4] and 0.1 in series [5].
Turning to “enterokinase enzyme (Invitrogen, Carlsbad, Calif.)”, the “BRET ratio (emission at 550 nm / 470 nm) over four hours, purified protein with two units of enterokinase” value is “The ratios from the negative controls (Rluc and Rluc:EYFP) did not change over time when in the presence or absence of the enterokinase enzyme” in series [6]; “Only the ratio for the construct Rluc:enterokinase:EYFP in the presence of the enterokinase enzyme decreased over time” in series [7].
